According to paper PMC8594078:
Read-outs that look alike come from different tables or passages of the source.

B1: Apt 6 (ssDNA)
DNA: ATAGTCCCTGGCGTGCTTGACAGCAACACGAACACTGAACGTTCTTAACAAGCCTGGCAGAGCAGGTACGGTGTCA
B2: Apt 14 (ssDNA)
DNA: ATAGTCCCTGGCGTGCTTCCGCGAGAGTTCGACATTCCCGAAAGTACGACGAAAGTCCAGAGCAGGTACGGTGTCA

Key:
[1] = target: T1, biotinylated human ACE2 (Acrobiosystems EP-105 kit) (Homo sapiens, UniProt Q9BYF1 18-740); test: competition ELISA
[2] = target: T1, biotinylated human ACE2 (Acrobiosystems …); test: competition ELISA; remark: listed apart in the source

T1 sequence (Q9BYF1 18-740): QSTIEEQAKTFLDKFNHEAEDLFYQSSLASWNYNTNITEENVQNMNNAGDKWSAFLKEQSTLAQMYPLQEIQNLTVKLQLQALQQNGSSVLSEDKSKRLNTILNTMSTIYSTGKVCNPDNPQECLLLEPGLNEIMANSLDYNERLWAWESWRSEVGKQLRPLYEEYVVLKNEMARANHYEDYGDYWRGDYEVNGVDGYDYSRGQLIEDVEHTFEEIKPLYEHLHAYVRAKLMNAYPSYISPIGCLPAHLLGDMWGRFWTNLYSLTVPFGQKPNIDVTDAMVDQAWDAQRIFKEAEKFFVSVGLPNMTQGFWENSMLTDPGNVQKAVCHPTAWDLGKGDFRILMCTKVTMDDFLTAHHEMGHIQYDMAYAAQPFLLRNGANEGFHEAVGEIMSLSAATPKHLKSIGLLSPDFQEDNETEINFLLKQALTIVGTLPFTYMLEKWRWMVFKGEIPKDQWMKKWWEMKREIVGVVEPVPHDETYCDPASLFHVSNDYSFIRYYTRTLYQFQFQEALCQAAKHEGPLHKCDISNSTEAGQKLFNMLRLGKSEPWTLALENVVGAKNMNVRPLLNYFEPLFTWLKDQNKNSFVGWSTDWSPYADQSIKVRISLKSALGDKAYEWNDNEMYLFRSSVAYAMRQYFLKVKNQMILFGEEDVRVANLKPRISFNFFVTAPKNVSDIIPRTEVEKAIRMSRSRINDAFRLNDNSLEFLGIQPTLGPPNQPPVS

Binder | IC50 [1] [µM] | IC50 [2] [µM]
B1 | 0.033 | 0.035
B2 | 0.047 | 0.132
